For this experiment, the target named is T1, tau (rat, UniProt P19332-5 2-432, limits assumed).
T1 construct: Cytoskeletal protein used as a specificity control in the cypin immunoprecipitates
In words: immunoprecipitation from rat brain extract with polyclonal anti-cypin antibody. Here is the method:
Cypin contains a region of homology to CRMP that binds directly to tubulin heterodimers (Akum et al., Nature Neurosci. 7:145 (2004)). To establish that cypin binds to tubulin, affinity chromatography was performed using a GST fusion of rat cypin immobilized on glutathione beads incubated with rat brain extract. The eluate was then assayed for the presence of tubulin. […] To assess whether this interaction occurs in vivo, rat brain extract was subjected to immunoprecipitation with preimmune serum or polyclonal antibody raised against cypin. Tubulin was found in the cypin immunoprecipitates (Id.). Very little tubulin was present when preimmune serum is used, representing nonspecific binding (Id.). Furthermore, no tau was detected in the cypin immunoprecipitates, supporting the idea that cypin binds specifically to tubulin and not all cytoskeletal proteins (Id.). In addition, cypin was found in tubulin immunoprecipitates.

T1 sequence (P19332 other isoform, or with tags, fused parts or gaps limits assumed): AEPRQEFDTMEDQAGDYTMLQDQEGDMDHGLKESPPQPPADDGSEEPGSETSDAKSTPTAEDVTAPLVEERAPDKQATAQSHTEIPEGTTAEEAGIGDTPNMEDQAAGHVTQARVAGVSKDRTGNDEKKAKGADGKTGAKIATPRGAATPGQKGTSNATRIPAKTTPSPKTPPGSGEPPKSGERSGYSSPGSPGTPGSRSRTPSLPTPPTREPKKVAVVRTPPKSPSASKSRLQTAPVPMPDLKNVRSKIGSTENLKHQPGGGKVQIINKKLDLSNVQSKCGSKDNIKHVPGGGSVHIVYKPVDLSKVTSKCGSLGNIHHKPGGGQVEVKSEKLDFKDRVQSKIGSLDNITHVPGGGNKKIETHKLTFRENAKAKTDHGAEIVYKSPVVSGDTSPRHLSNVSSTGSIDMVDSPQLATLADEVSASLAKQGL

B1: cypin in rat brain extract (enzyme)
chain: MCAARTPQLALIFRGTFVHSTWTCPMEVLRDHLLGVSDSGKIVFLEESSQQEKLAKEWCFKPCEIRELSHHEFFMPGLVDTHIHAPQYAFAGSNVDLPLLDWLNKYTFPTEKRFQSTDVAEEVYTRVVRRTLKNGTTTACYFGTIHTDSSLILAEITDKFGQRAFVGKVCMDLNNTVPEYKETTEESVKETERFVSEMLQKNYSRVKPIVTPRFSLSCTETLMSELGNIAKTHDLYIQSHISENREEIEAVKSLYPGYKNYTDVYDKNNLLTNKTVMAHGCYLSEEELNVFSERGASIAHCPNSNLSLSSGLLNVLDVLKHKVKIGLGTDVAGGYSYSMLDAIRRAVMVSNVLLINKVNEKSLTLKEVFRLATLGGSQALGLDREIGNFEVGKDFDALLINPRASDSPIDLFCGDFVGDISEAVIQKFLYLGDDRNIEEVYVGGKQVVPFSSSV
notes: Endogenous cypin immunoprecipitated from rat brain extract with a polyclonal antibody raised against cypin; also called endogenous cypin
On to B1, for which the binding result is reported as “no binding”.

These data come from patent publication US20050214822A1 (RUTGERS THE STATE UNIVERSITY OF NEW JERSEY, published 2005).
